# Source: PMC5037138, “A Novel Class of Plant Type III Polyketide Synthase Involved in Orsellinic Acid Biosynthesis from Rhododendron dauricum” (Frontiers in Plant Science, 2016)
# B1: ORS (orcinol synthase) (Rhododendron dauricum) (protein)
# chain: MALVNHRENVKGRAQILAIGTANPKNCFRQVDYPDYYFRVTKSDHLIDLKAKFKRMCEKSMIEKRYMHVNEEILEQNPSMNHGGEKMVSSLDVRLDMEIMEIPKLAAEAATKAMDEWGQPKSRITHLVFHSTLGTVMPGVDYELIKLLGLNPSVKRFMLYHLGCYGGGTVLRLAKDLAENNPGSRVLVLCCEMMPSGFHGPPSLQHAHLDILTGHAIFGDGAGAVIVGCVDPSGGTNGVVERGVRRYEQPLFEIHSAYQTVLPDSKDAVGGRLREAGLIYYLSKRLSNDVSGKIDECCLAEAFSAAIKDNFEDWNSLFWIVHPAGRPILDKLDAKLGLNKEKLRASRNVLRDYGNMWSSSVLFVLDEMRKGSIAQRKTTTGEGFEWGVLLGFGPGVTVETVVLRSVPTAKLK
# notes: full length, 412 residues (45,707 Da), N-terminal His6 tag kept (pQE80L), E. coli M15; ~48 kDa subunit; homodimer ~101 kDa
# B2: CHS (R. dauricum chalcone synthase) (Rhododendron dauricum) (protein)
# chain: MVTVEDVRKAQRAEGPATVMAIGTATPPNCVDQSTYPDFYFRITNSEHKAELKEKFQRMCDKSMIKKRYMYLTEEILKENPSVCEYMAPSLDARQDMVVVEVPKLGKEAATKAIKEWGQPKSKITHLVFCTTSGVDMPGADYQLTKLLGLRPSVKRLMMYQQGCFAGGTVLRLAKDLAENNKGARVLVVCSEITAVTFRGPSDTHLDSLVGQALFGDGAAAIIVGADPVPEVEKPLFELVSAAQTILPDSDGAIDGHLREVGLTFHLLKDVPGLISKNIEKALTEAFQPLGISDWNSIFWIAHPGGPAILDQVELKLSLKPEKLRATRHVLSEYGNMSSACVLFILDEMRRKSAEEGLKTTGEGLEWGVLFGFGPGLTVETVVLHSLCT
# notes: full length, 389 residues (42,599 Da), N-terminal His6 tag kept (pQE80L), E. coli M15; ~45 kDa subunit; homodimer ~94 kDa
# Columns and labels:
# Assay in all cases: HPLC product quantification, Hanes-Woolf
# Format in all cases: biochemical, Rhododendron dauricum
# [1] = substrate: CC(=O)SCCNC(=O)CCNC(=O)[C@H](O)C(C)(C)COP(=O)(O)OP(=O)(O)OC[C@H]1O[C@@H](n2cnc3c(N)ncnc32)[C@H](O)[C@@H]1OP(=O)(O)O; conditions: orcinol formation (major product), 200 uM malonyl-CoA, 100 mM potassium phosphate pH 7.0, 30 C, no OAC
# Text: (§1) HPLC product quantification, Hanes-Woolf on ORS (orcinol synthase)
# [2] = substrate: CCCC(=O)SCCNC(=O)CCNC(=O)[C@H](O)C(C)(C)COP(=O)(O)OP(=O)(O)OC[C@H]1O[C@@H](n2cnc3c(N)ncnc32)[C@H](O)[C@@H]1OP(=O)(O)O; conditions: 4-hydroxy-6-propyl-2-pyrone formation, 200 uM malonyl-CoA, pH 7.0, 30 C
# Text: as §1
# [3] = substrate: CCCCCC(=O)SCCNC(=O)CCNC(=O)[C@H](O)C(C)(C)COP(=O)(O)OP(=O)(O)OC[C@H]1O[C@@H](n2cnc3c(N)ncnc32)[C@H](O)[C@@H]1OP(=O)(O)O; conditions: 4-hydroxy-6-pentyl-2-pyrone formation, 200 uM malonyl-CoA, pH 7.0, 30 C
# Text: as §1
# [4] = substrate: CC(C)(COP(=O)(O)OP(=O)(O)OC[C@H]1O[C@@H](n2cnc3c(N)ncnc32)[C@H](O)[C@@H]1OP(=O)(O)O)[C@@H](O)C(=O)NCCC(=O)NCCSC(=O)/C=C/c1ccc(O)cc1; conditions: naringenin formation, 200 uM malonyl-CoA, pH 7.0, 30 C
protein,measurement,setting,value
B1,Km,[1],9.98 µM
same,kcat,[1],0.0243 s⁻¹
same,Km,[2],17.1 µM
same,kcat,[2],0.00675 s⁻¹
same,Km,[3],26.4 µM
same,kcat,[3],0.00482 s⁻¹
B2,Km,[4],8.15 µM
same,kcat,[4],0.0089 s⁻¹
